Measured values: article PMC6203859, “Non-catalytic signaling by pseudokinase ILK for regulating cell adhesion” (Nature Communications, 2018)

Experiments:
[1] = target: F-actin (rabbit skeletal muscle actin, polymerised) (rabbit, UniProt P68135 1-377); test: co-sedimentation; F-actin co-sedimentation: rabbit skeletal muscle actin polymerized with 50 mM KCl, 2 mM MgCl2, 1 mM ATP; test protein added in F-actin buffer (with 5% glycerol or no glycerol), 30 min room temperature; 150,000xg, 4 °C, 1 h; SDS-PAGE, Coomassie, densitometry; KD by curve fitting; conditions: both partners purified
[2] = target: full-length human ILK (C346S; C422S), subunit of the coexpressed IPP complex (human, UniProt Q13418 1-452, C346S | C422S); test: SEC; purified IPP complex (coexpressed in E. coli, co-purified by Ni affinity on His6-PINCH-1) on Superose 6 10/300 GL; conditions: both partners purified
full-length human ILK (C346S; C422S), subunit of the coexpressed IPP complex, sequence (Q13418 whole entry C346S/C422S, one chain of several): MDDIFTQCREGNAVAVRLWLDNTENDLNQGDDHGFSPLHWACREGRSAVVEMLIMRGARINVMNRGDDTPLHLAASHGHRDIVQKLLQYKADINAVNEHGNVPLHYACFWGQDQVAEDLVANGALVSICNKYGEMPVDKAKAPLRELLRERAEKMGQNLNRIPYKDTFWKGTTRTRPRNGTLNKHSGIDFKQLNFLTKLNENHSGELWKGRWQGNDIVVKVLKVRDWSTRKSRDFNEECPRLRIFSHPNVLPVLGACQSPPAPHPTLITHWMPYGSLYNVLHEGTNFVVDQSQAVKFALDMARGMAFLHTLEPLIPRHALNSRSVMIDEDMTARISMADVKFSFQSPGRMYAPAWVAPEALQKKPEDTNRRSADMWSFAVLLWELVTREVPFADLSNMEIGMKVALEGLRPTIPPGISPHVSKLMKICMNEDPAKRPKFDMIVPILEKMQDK

Row | Kd [1] | binding result [2] | Binder
1 | ~21 µM |  | α-Parvin-N (N-terminal region 1–91) as used in F-actin co-sedimentation (domain or fragment, α-Parvin, human, N-terminal region; the text defines α-Parvin-N as 1-91; the methods list a GST-fused 1-89 and a hexahistidine-tagged 1-91 form; also called WT α-Parvin; source: E. coli, purified) MATSPQKSPSVPKSPTPKSPPSRKKDDSFLGKLGGTLARRKKAKEVSELQEEGMNAINLPLSPIPFELDPEDTMLEENEVRTMVDPNSRSD
2 | ~49 µM |  | α-Parvin-N 5A (L37A/R39A/R40A/K41A/K42A) as used in F-actin co-sedimentation (domain or fragment, α-Parvin, human, N-terminal domain, residues 1-91 (both the GST-fused and the His6-tagged 5A forms are 1-91); source: E. coli, purified) MATSPQKSPSVPKSPTPKSPPSRKKDDSFLGKLGGTAAAAAAAKEVSELQEEGMNAINLPLSPIPFELDPEDTMLEENEVRTMVDPNSRSD
3 |  | binds | full-length human α-Parvin, subunit of the coexpressed IPP complex (natural protein, UniProt Q9NVD7 1-372, looked up) MATSPQKSPSVPKSPTPKSPPSRKKDDSFLGKLGGTLARRKKAKEVSELQEEGMNAINLPLSPIPFELDPEDTMLEENEVRTMVDPNSRSDPKLQELMKVLIDWINDVLVGERIIVKDLAEDLYDGQVLQKLFEKLESEKLNVAEVTQSEIAQKQKLQTVLEKINETLKLPPRSIKWNVDSVHAKSLVAILHLLVALSQYFRAPIRLPDHVSIQVVVVQKREGILQSRQIQEEITGNTEALSGRHERDAFDTLFDHAPDKLNVVKKTLITFVNKHLNKLNLEVTELETQFADGVYLVLLMGLLEGYFVPLHSFFLTPDSFEQKVLNVSFAFELMQDGGLEKPKPRPEDIVNCDLKSTLRVLYNLFTKYRNVE
